In US20220056147A1:

What was measured:
[1] = molecular target: human MSLN on Oval-Citar-3-MSLN cells (human) (UniProt Q13421); test: flow cytometry on fixed Oval-Citar-3-MSLN cells, FITC anti-human IgG Fc detection
[2] = molecular target: human MSLN on Oval-Citar-3-MSLN cells (human) (UniProt Q13421); test: cell ELISA on fixed Oval-Citar-3-MSLN cells, HRP anti-human IgG Fc detection

Sequence of human MSLN on Oval-Citar-3-MSLN cells (human) (Q13421 other isoform, or with tags, fused parts or gaps limits assumed): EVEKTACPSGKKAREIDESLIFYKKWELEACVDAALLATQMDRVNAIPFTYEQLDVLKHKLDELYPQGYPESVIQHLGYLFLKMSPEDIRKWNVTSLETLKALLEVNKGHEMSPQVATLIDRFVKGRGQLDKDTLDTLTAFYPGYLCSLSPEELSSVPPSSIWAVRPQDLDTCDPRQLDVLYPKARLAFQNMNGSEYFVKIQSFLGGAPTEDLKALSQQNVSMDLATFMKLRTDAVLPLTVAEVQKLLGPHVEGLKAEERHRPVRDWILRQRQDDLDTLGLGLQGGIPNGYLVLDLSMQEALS

| Binder | EC50 [1] | EC50 [2] |
| --- | --- | --- |
| RC88 antibody (antibody, human IgG1, kappa, V domains shown) VH: EVQLVESGGGLVQPGGSLRLSCAASGFDFSRYWMSWVRQAPGKGLEWIGEINPDSSTIVYTPSLKDKFIISRDNAKNTLYLQMNSLRAEDTALYYCARRGSHYYGYRTGYFDVWGAGTTVTVSS VL: DVVMTQSPAFLSVTPGEKVTMTCSASSSVSYMYWHQQKPDQAPKLLIYDTSNLASGVPVRFSGSGSGTDFTFTISRMEAEDAATYYCQQWSSYPPTFGGGTKVEIKR | 0.153 µg/mL | 0.011 µg/mL |
| RC88-Py-MAA-Val-Cit-PAB-MMAE (antibody, human IgG1, kappa, V domains shown, Py-MAA-Val-Cit-PAB-MMAE linker-drug coupled to cysteine thiols of reduced disulfide bonds (bridging linker); positions not given; DAR 3.95) VH: EVQLVESGGGLVQPGGSLRLSCAASGFDFSRYWMSWVRQAPGKGLEWIGEINPDSSTIVYTPSLKDKFIISRDNAKNTLYLQMNSLRAEDTALYYCARRGSHYYGYRTGYFDVWGAGTTVTVSS VL: DVVMTQSPAFLSVTPGEKVTMTCSASSSVSYMYWHQQKPDQAPKLLIYDTSNLASGVPVRFSGSGSGTDFTFTISRMEAEDAATYYCQQWSSYPPTFGGGTKVEIKR | 0.251 µg/mL | 0.0197 µg/mL |
